Experiment [1] concerns HCC329. The experiment can be described thus: wound healing migration assay, HCC329. The class given is cell-based, human. How it is done:
The HCC cells were cultivated on 24-well plates accompanied with a wound healing culture insert until confluence followed by serum starvation of the cells for 24 hours and the culture insert were then removed. After appropriate treatments, pictures were taken under a phase contrast microscope at indicated times.
Cell numbers were counted, and the relative doubling times of the respective treated groups were determined by taking the data of the untreated group as 100%. […] Relative migration was analyzed quantitatively by taking the motility of untreated cells (Con) as 1.0.

The test system of experiment [2] is p-JNK, p-ERK, p-AKT, p-EGFR in HCC329. The experiment can be described thus: immuno-blotting of signaling molecules, HCC329. The class given is cell-based, human. Particulars: within 4 to 16 hours, data not shown. The source says:
To investigate the molecular mechanism of FIP-gts in suppression of tumor progression of HCCs, the effects of FIP-gts on the activity and/or quantity of the critical members present in c-Met dependent signaling pathway, including c-Met, phosphorylated c-Met (p-c-Met) and downstream effectors p-JNK and p-ERK, were examined in HCCs. […] Total proteins were harvested from the cells and subjected to immuno-blotting analysis using GAPDH as a loading control. Antibodies for p-c-Met, p-JNK, p-ERK and p-paxillin (S178), GAPDH and ERK were purchased from Santa Cruz Biotechnology (California, USA). The band intensities on the blots were quantified with Image J. Software. Relative band intensity of each molecule was calculated, taking the data of untreated HCC372 or HCC329 as 1.0.

For experiment [3], the system named is HCC329. The experiment can be described thus: HCC329 tumor development and metastasis in SCID mice model. In kind it is in vivo. Particulars: JNJ 0.5-2.0 nmole/g mouse, intraperitoneal twice a week, 2 months. The procedure: HCC329 cells (approximately 2×10^7) suspended in 100 μl Dulbecco's Modified Eagle Medium (DMEM; Gibco, Grand Island, N.Y., USA) were directly injected into the subserosa of the middle liver lobe of the SCID mice, followed by intraperitoneal administration twice a week with DMEM as a vehicle, vehicle-containing FIP-gts (4.0-20 μg/g mouse) or JNJ (0.5-2.0 nmole/g mouse).
The mice were sacrificed 2 months after injection. Tumor mass was measured and the occurrence of intrahepatic metastasis and/or extrahepatic metastasis was recorded. Nodules with diameter of more than 0.1-0.2 cm observed on the left or right lobes were recognized as secondary tumor foci. […] Extra-hepatic metastasis was defined to be the case where the tumors appearing in organs other than liver such as in intestine. During the animal experiment, the regulations relevant to the care and use of laboratory animals were followed. This was approved by the Institutional Animal Care and Use Committee (IACUC) in Tzu Chi University (No. of consent form: 102080).

Experiment [4] relates to HCC372. The experiment can be described thus: wound healing migration assay, HCC372. In kind it is cell-based, human. Particulars: JNJ 26.5 nM, 48 hours. The procedure:
The HCC cells were cultivated on 24-well plates accompanied with a wound healing culture insert until confluence followed by serum starvation of the cells for 24 hours and the culture insert were then removed. After appropriate treatments, pictures were taken under a phase contrast microscope at indicated times. Quantitative analysis of motility of the HCC cell lines described in Example 1 was performed by directly counting the cells migrating into the blanking area at 48 hours using Image J. Software available from the NIH website. In general, motilities of the mesenchymal HCCs were higher than those of the epithelial ones.
The most motile HCC cell lines identified in Example 2, namely HCC372 and HCC329, were employed for testing the molecular and cellular effects of FIP-gts on HCC, in comparison with those of JNJ-38877605 (abbreviated hereafter as JNJ), which is an ATP-competitive inhibitor for the catalytic activity of c-Met. In the cell proliferation assay, HCC329 and HCC372 cells were untreated or treated with FIP-gts (prepared in Example 4) at 0.5, 1.0 or 2.0 μg/ml for 72 hours. Cell numbers were counted, and the relative doubling times of the respective treated groups were determined by taking the data of the untreated group as 100%. […] Relative migration was analyzed quantitatively by taking the motility of untreated cells (Con) as 1.0. […]

The subject of experiment [5] is HCC372. The experiment can be described thus: MTT cell viability, HCC372. In kind it is cell-based, human. Particulars: 48 hours. The procedure:
(§1) HCC372 and HCC329 cell lines established in Example 2 were cultured in 24-well plates at 1×10^5 cells/well in Dulbecco's Modified Eagle Medium (DMEM; Sigma, St. Louis, Mo., USA) supplemented with 1% heat-inactivated fetal bovine serum (FBS; Gibco, N.Y., USA) in the presence or absence of FIP-gmi, FIP-fve and FIP-vvo prepared in Example 4 at 1, 2.5 and 5 μg/ml for 48 hours. The supernatant was removed and 25 μl per well of 2.5 mg/ml MTT (3-[4,5-dimethylthiazol-2-yl]-2,5-dipheyltetrazolium bromide; Sigma Chemical Co., St. Louis, Mo., USA) in phosphate-buffered saline (PBS) was added. The plates were incubated at 37° C. for 1 hour to allow the transformation of MTT into water-insoluble formazan crystals. Then, the supernatant was removed and dimethyl sulfoxide (DMSO) was added to all wells and mixed thoroughly to dissolve the dark blue crystals. After a few minutes at room temperature to ensure that all crystals were totally dissolved, the plates were read at 570 nm. Relative survival rate was calculated by taking the number of untreated cells (Con) as 100%. The results are shown in FIGS. 6A and 6B, where the data were representative of 4 reproducible experiments.

The test system of experiment [6] is c-Met, p-c-Met and p-JNK in HCC372. The experiment can be described thus: western blotting of c-Met dependent signaling (Example 10), HCC372. In kind it is cell-based, human. Particulars: HCC372 (HGFR-positive). The procedure: To investigate the molecular mechanism of FIP-gts in suppression of tumor progression of HCCs, the effects of FIP-gts on the activity and/or quantity of the critical members present in c-Met dependent signaling pathway, including c-Met, phosphorylated c-Met (p-c-Met) and downstream effectors p-JNK and p-ERK, were examined in HCCs. HCC329 and HCC372 cells were treated with FIP-gts (2 μg/ml) for 4 or 24 hours. Total proteins were harvested from the cells and subjected to immuno-blotting analysis using GAPDH as a loading control. Antibodies for p-c-Met, p-JNK, p-ERK and p-paxillin (S178), GAPDH and ERK were purchased from Santa Cruz Biotechnology (California, USA). The band intensities on the blots were quantified with Image J. Software. Relative band intensity of each molecule was calculated, taking the data of untreated HCC372 or HCC329 as 1.0. The results were shown in FIGS. 5A and 5B, in which (**) (##) and (*) (#) represent statistical significance (p<0.005 and p<0.05, respectively, n=3) between the indicated inhibitor-treated sample and untreated HCC329 or HCC372 control group.
The experiments described in Example 7 were repeated, except that FIP-gts was replaced with FIP-gmi, FIP-fve and FIP-vvo for treating HCC329 and HCC372. […] In addition, since c-Met was not substantially expressed in HCC329, the inhibitory effects of FIP-gmi, FIP-fve and FIP-vvo on HCC329 must be exerted through blockage on a c-Met independent signaling, such as EGFR-dependent signaling pathway.

Experiment [7] concerns HCC329. Kind of experiment: MTT cell viability, HCC329. In kind it is cell-based, human. The conditions noted are these: 48 hours. The procedure: as §1
For experiment [8], the system named is HCC329. Kind of experiment: transwell migration assay, HCC329. The class given is cell-based, human. The conditions noted are these: FIP-fve 10 μg/ml, 48 hours. How it is done:
(§2) Further, the effects of the three FIPs on migration of both HCC cells were examined. HCC372 and HCC329 cells were seeded on a 24-well transwell migration insert (Nalge Nunc International Corp., Rochester, N.Y., USA) in a complete medium for 24 hours. After treatment with FIP-gmi (3 μg/ml), FIP-fve (10 μg/ml) and FIP-vvo (2.5 μg/ml) for 48 hours, cells that had migrated to the underside of the insert membrane were stained with 0.3% crystal violet. The cells on the topside of the insert membrane were rubbed with a cotton swab. The migrated cells on the underside were imaged using phase contrast microscopy with 200× magnification.

The test system of experiment [9] is HCC372. Kind of experiment: transwell migration assay, HCC372. In kind it is cell-based, human. Particulars: FIP-fve 10 μg/ml, 48 hours. The procedure:
as §2

On to `Cc1cc(C)c(/C=C2\C(=O)Nc3ccccc32)[nH]1` [SU5416, reference compound], for which the “suppression of cell migration by EGFR inhibitors” value in the experiment on HCC329 [1] (wound healing assays, data not shown) came to 80%. Also, the “reduction of the level of p-JNK by EGFR inhibitors” value in [2] was 30%.

As to `Cn1cc(-c2ccc3nnc(C(F)(F)c4ccc5ncccc5c4)n3n2)cn1` [JNJ-38877605, reference compound], the “suppression of cell migration” value with HCC329 [1] (JNJ, 48 hours) was determined as 15%. Besides, in the experiment on HCC329 [3], the “secondary tumors on liver lobes (intra-hepatic metastasis)” value is “secondary tumors were observed on left and right liver lobes”; the “tumor progression of HCC329” value is listed as “not prominent”. For the same molecule, in the experiment with HCC372 [4], the “suppression of cell migration” value is 50%.

B1: FIP-vvo: fungal immunomodulatory protein from Volvariella volvacea, SEQ ID NO: 3 (protein, listed as Volvariella volvacea)
chain: STDLTQLLFFIAYNLQKVNFDYTPQWQRGNPSSYIDAVVFPRVLTNKAYQYRVVTGDKDLGIKPSYSVQADGSQKVNLLEYNGGYGVADTTTIKIYVVDPSNGNQYLIAQWK
For B1, the “suppression of growth (MTT)” value in the experiment with HCC372 [5] (2.5 μg/ml) worked out at 48%; with HCC372 [5] (5 μg/ml), 96%; in the experiment with HCC329 [7] (2.5 μg/ml) it was 54%; in the experiment on HCC329 [7] (5 μg/ml), 95%. Moreover, in [6], the “effect on c-Met” value was “significantly suppressed”. Further, in experiment [6], the “effect on p-JNK” value is on record as “significantly suppressed”. Besides, in [6], the “effect on p-c-Met” value is on record as “significantly suppressed”.

B2: FIP-gmi: fungal immunomodulatory protein from Ganoderma microsporum, SEQ ID NO: 6 (protein, listed as Ganoderma microsporum)
chain: MSDTALIFTLAWNVKQLAFDYTPNWGRGRPSSFIDTVTFPTVLTDKAYTYRVVVSGKDLGVRPSYAVESDGSQKINFLEYNSGYGIADTNTIQVYVIDPDTGNNFIVAQWN
As for B2, the “suppression of growth (MTT)” value with HCC372 [5] (2.5 μg/ml) is recorded as 23%; in the experiment with HCC372 [5] (5 μg/ml), 96%; in the experiment on HCC329 [7] (2.5 μg/ml), 23%; with HCC329 [7] (5 μg/ml), 94%. Also, the “effect on c-Met” value in experiment [6] is reported as “significantly suppressed”. For the same molecule, the “effect on p-JNK” value in experiment [6] is given as “significantly suppressed”. Moreover, in experiment [6], the “effect on p-c-Met” value was “significantly suppressed”.

B3: FIP-fve: fungal immunomodulatory protein from Flammulina veltipes, SEQ ID NO: 2 (protein)
chain: SATSLTFQLAYLVKKIDFDYTPNWGRGTPSSYIDNLTFPKVLTDKKYSYRVVVNGSDLGVESNFAVTPSGGQTINFLQYNKGYGVADTKTIQVFVVIPDTGNSEEYIIAEWKKT
modifications: Flammulina Velutipes
For the molecule B3, the “suppression of growth (MTT)” value with HCC372 [5] (2.5 μg/ml) is 13%; in the experiment with HCC372 [5] (5 μg/ml) it was 13%; in the experiment on HCC329 [7] (2.5 μg/ml), 18%; with HCC329 [7] (5 μg/ml) it was 22%. For the same molecule, the “suppression of cell migration (transwell)” value in the experiment with HCC329 [8] and with HCC372 [9] was “marginally suppressed” in each case. Further, in experiment [6], the “effect on c-Met” value is “significantly suppressed”. Moreover, the “effect on p-JNK” value in experiment [6] is reported as “significantly suppressed”. Moreover, the “effect on p-c-Met” value in [6] was “significantly suppressed”.

For the origin of these results see US20170368119A1, “METHODS AND COMPOSITIONS FOR TREATING C-MET ASSOCIATED CANCERS” (YEASTERN BIOTECH CO., LTD, priority 2014, published 2017).
